# Reference: patent US20050175995A1 (UNIVERSITY OF UTAH RESEARCH FOUNDATION, published 2005)
# T1: wild-type (WT) Kir2.1 subunit (human, UniProt P63252 1-427)
# T1 sequence: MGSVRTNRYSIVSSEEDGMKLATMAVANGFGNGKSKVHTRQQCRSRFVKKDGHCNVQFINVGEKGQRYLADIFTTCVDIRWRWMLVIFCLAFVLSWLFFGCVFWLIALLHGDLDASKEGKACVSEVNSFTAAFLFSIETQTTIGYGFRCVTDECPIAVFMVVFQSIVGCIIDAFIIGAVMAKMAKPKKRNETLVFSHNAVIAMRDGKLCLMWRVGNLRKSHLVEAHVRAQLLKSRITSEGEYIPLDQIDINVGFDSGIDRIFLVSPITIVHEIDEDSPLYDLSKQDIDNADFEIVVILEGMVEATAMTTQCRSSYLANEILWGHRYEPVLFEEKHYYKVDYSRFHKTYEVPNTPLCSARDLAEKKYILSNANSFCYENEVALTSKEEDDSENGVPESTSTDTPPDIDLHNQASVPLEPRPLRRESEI
# B1: D71V Kir2.1 mutant subunit (other)
# chain: MGSVRTNRYSIVSSEEDGMKLATMAVANGFGNGKSKVHTRQQCRSRFVKKDGHCNVQFINVGEKGQRYLAVIFTTCVDIRWRWMLVIFCLAFVLSWLFFGCVFWLIALLHGDLDASKEGKACVSEVNSFTAAFLFSIETQTTIGYGFRCVTDECPIAVFMVVFQSIVGCIIDAFIIGAVMAKMAKPKKRNETLVFSHNAVIAMRDGKLCLMWRVGNLRKSHLVEAHVRAQLLKSRITSEGEYIPLDQIDINVGFDSGIDRIFLVSPITIVHEIDEDSPLYDLSKQDIDNADFEIVVILEGMVEATAMTTQCRSSYLANEILWGHRYEPVLFEEKHYYKVDYSRFHKTYEVPNTPLCSARDLAEKKYILSNANSFCYENEVALTSKEEDDSENGVPESTSTDTPPDIDLHNQASVPLEPRPLRRESEI
# Molecular target: T1, wild-type (WT) Kir2.1 subunit
# Experiment: cell-based or functional assay
binder,measurement,value
B1,"Reduction in current on co-expression of WT and D71V subunits, relative to WT current",~0.938 fraction of WT current
